B1: full-length wild-type TRBP (TRBP-WT), lentivirally expressed in HDLECs [human] / S6K2 (S6 kinase 2), endogenous [human (endogenous in HDLEC)] (parent)
chain 1: MSEEEQGSGTTTGCGLPSIEQMLAANPGKTPISLLQEYGTRIGKTPVYDLLKAEGQAHQPNFTFRVTVGDTSCTGQGPSKKAAKHKAAEVALKHLKGGSMLEPALEDSSSFSPLDSSLPEDIPVFTAAAAATPVPSVVLTRSPPMELQPPVSPQQSECNPVGALQELVVQKGWRLPEYTVTQESGPAHRKEFTMTCRVERFIEIGSGTSKKLAKRNAAAKMLLRVHTVPLDARDGNEVEPDDDHFSIGVGSRLDGLRNRGPGCTWDSLRNSVGEKILSLRSCSLGSLGALGPACCRVLSELSEEQAFHVSYLDIEELSLSGLCQCLVELSTQPATVCHGSATTREAARGEAARRALQYLKIMAGSK
chain 2: MAAVFDLDLETEEGSEGEGEPELSPADACPLAELRAAGLEPVGHYEEVELTETSVNVGPERIGPHCFELLRVLGKGGYGKVFQVRKVQGTNLGKIYAMKVLRKAKIVRNAKDTAHTRAERNILESVKHPFIVELAYAFQTGGKLYLILECLSGGELFTHLEREGIFLEDTACFYLAEITLALGHLHSQGIIYRDLKPENIMLSSQGHIKLTDFGLCKESIHEGAVTHTFCGTIEYMAPEILVRSGHNRAVDWWSLGALMYDMLTGSPPFTAENRKKTMDKIIRGKLALPPYLTPDARDLVKKFLKRNPSQRIGGGPGDAADVQRHPFFRHMNWDDLLAWRVDPPFRPCLQSEEDVSQFDTRFTRQTPVDSPDDTALSESANQAFLGFTYVAPSVLDSIKEGFSFQPKLRSPRRLNSSPRAPVSPLKFSPFEGFRPSPSLPEPTELPLPPLLPPPPPSTTAPLPIRPPSGTKKSKRGRGRPGR

Variants of: B1
Assay: proximity ligation assay (PLA) in cells
Settings: with S6K2 (S6 kinase 2), HDLECs transduced with TRBP-DD lentivirus (200 ml/80 000 cells), endogenous TRBP also present, parent: 31, read off a plot

**Q.** Which response (PLA events per HDLEC) does the source give for chain 1 S283D S286D here?
**A.** 7

Variants of: B1
Assay: co-immunoprecipitation, band quantification
Settings: with S6K2, lentivirally over-expressed in HEK293 cells; HEK293 cells over-expressing S6K2 and TRBP-WT or TRBP-DD; parent: 1; read off a plot

**Q.** Which ratio to parent does the source give for chain 1 S283D S286D here?
**A.** 0.16

Variants of: B1
Assay: proximity ligation assay (PLA) in cells
Settings: with S6K2 (S6 kinase 2), HDLECs transduced with TRBP-AA lentivirus (600 ml/80 000 cells), endogenous TRBP also present, parent: 31, read off a plot

**Q.** With chain 1 S283A S286A as the variant, how does the response (PLA events per HDLEC) read?
**A.** 20

From paper PMC5175334
